Measured values taken from patent publication WO2001004159A1.

Key:
[1] = molecular target: platelet Fc receptor Fc-gamma RIIA (human) (UniProt P12318); assay: cell-based or functional assay
[2] = molecular target: hPF4/heparin complex (human) (UniProt P02776); assay: cell-based or functional assay
[3] = molecular target: hPF4/heparin complex (human) (UniProt P02776); assay: ELISA, wells coated with hPF4/heparin complex
[4] = molecular target: hPF4/heparin complex (human) (UniProt P02776); assay: ELISA (A405), KKO below 0.14 micrograms per milliliter
[5] = molecular target: hPF4/heparin complex (human) (UniProt P02776); assay: ELISA, wells coated with hPF4 with or without heparin

Sequence of UniProt P02776 (P02776 32-101, one chain of several): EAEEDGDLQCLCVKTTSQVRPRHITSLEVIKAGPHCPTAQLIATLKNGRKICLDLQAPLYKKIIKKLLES
Sequence of UniProt P12318 (P12318 34-317, form in doubt): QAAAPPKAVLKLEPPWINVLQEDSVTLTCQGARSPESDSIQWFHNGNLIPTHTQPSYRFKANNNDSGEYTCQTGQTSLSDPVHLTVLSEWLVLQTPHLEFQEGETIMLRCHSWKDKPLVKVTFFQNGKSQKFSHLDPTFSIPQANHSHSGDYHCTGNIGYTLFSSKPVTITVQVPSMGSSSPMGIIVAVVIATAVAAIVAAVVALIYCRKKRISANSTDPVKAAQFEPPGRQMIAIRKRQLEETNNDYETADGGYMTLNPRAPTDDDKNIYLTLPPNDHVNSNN

14C-serotonin release induced by KKO in the presence of the FcγRIIA-specific mAb IV.3 [1]: < 5 % release
KKO concentration required to initiate 14C-serotonin release (micrograms per milliliter) [2]: > 180
EC50 [3]: 0.036 µg/mL
ratio of binding to PF4/heparin complex vs. binding to PF4 alone [4]: > 400
A405 ratio to hPF4/heparin complex versus hPF4 alone [5]: > 30
Substance: murine monoclonal antibody KKO
